# Test results from paper PMC2756588.
# T1: Bbc1, P47068
# T1 sequence (P47068 1-78, looked up): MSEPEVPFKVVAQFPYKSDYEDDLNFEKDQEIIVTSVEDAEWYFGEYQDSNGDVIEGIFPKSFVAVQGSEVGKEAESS
# T2: Boi2, P39969
# T2 sequence (P39969 32-116, looked up): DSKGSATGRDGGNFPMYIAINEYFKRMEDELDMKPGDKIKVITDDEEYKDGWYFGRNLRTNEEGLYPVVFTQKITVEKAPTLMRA
# T3: Myo5, Q04439
# T3 sequence (Q04439 1072-1160, looked up): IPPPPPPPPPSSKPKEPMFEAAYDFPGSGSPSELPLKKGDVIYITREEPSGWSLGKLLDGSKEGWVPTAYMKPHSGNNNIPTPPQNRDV
# T4: Pin3, Q06449
# T4 sequence (Q06449 53-122, looked up): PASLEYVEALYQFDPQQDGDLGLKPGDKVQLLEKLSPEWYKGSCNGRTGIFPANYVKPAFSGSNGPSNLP
# T5: Sla1-2, P32790
# T5 sequence (P32790 60-140, looked up): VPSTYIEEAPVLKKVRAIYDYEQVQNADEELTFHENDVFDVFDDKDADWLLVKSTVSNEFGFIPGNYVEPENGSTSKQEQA
# T6: Bud14, P27637
# T6 sequence (P27637 247-328, looked up): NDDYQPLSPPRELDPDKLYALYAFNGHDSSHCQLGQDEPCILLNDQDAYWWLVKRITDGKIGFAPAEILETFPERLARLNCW
# T7: Nbp2, Q12163
# T7 sequence (Q12163 103-180, looked up): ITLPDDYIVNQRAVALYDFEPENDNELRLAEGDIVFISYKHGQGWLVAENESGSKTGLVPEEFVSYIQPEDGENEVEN
# T8: Cyk3, Q07533
# T8 sequence (Q07533 1-83, looked up): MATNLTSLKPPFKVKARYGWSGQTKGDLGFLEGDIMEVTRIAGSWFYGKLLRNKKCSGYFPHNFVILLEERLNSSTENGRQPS
# T9: Bzz1-2, P38822
# T9 sequence (P38822 568-633, looked up): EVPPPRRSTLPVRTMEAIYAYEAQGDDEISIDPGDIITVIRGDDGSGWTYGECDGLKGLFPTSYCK
# T10: Pex13, P80667
# T10 sequence (P80667 295-386, looked up): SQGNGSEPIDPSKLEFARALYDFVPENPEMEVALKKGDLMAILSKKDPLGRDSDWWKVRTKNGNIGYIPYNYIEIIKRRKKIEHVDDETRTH
# T11: Sla1-3, P32790
# T11 sequence (P32790 344-424, looked up): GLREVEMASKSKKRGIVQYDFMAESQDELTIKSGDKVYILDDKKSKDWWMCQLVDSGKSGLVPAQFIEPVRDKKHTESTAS
# T12: Boi1, P38041
# T12 sequence (P38041 1-86, looked up): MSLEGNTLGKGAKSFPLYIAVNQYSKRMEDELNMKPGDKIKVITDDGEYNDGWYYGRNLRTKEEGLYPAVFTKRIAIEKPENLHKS
# T13: Lsb4, P32793
# T13 sequence (P32793 402-468, looked up): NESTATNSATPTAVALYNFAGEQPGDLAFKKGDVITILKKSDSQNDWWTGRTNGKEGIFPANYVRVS
# T14: Lsb1, P53281
# T14 sequence (P53281 45-122, looked up): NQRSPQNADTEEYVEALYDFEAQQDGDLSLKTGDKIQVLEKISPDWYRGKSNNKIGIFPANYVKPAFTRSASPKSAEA
# T15: Abp1, P15891
# T15 sequence (P15891 535-592, looked up): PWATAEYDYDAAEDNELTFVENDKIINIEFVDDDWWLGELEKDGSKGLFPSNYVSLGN
# T16: Hse1, P38753
# T16 sequence (P38753 208-285, looked up): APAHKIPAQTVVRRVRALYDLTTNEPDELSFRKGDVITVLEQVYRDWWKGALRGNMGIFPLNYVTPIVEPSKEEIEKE
# T17: Lsb3, P43603
# T17 sequence (P43603 385-451, looked up): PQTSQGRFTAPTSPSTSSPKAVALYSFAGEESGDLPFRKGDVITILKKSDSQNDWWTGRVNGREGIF
# T18: Hof1, Q05080
# T18 sequence (Q05080 590-669, looked up): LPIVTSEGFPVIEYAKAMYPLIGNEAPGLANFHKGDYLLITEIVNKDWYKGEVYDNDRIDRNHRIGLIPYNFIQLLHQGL
# T19: Fus1, P11710
# T19 sequence (P11710 432-512, looked up): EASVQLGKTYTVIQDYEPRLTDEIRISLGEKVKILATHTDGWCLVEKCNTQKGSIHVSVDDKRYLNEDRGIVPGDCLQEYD
# T20: Cdc25, P04821
# T20 sequence (P04821 50-136, looked up): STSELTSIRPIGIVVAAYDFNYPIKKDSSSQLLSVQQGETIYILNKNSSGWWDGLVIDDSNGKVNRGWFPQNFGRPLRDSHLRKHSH
# T21: Bzz1-1, P38822
# T21 sequence (P38822 478-572, looked up): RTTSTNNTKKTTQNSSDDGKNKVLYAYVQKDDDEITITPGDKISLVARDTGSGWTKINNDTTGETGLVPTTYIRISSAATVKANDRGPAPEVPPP
# B1: unnamed (peptide)
# chain: KWVRRPKLMTPLTFS
# B2: unnamed (peptide)
# chain: HPRFVSPRIPSRIVK
# B3: unnamed (peptide)
# chain: VKPRQLFPIPLNKVD
# B4: unnamed (peptide)
# chain: YYNRQELALPKRMSS
# B5: unnamed (peptide)
# chain: NRPAIRIPSLKKPAL
# B6: unnamed (peptide)
# chain: YSRKKLPVVLSKMTL
# Molecular target: T1, Bbc1, P47068
# Assay: SPOT array
# Details: median of control spots 796
row,SPOT intensity,Binder
1,38,B1
2,226,B2
3,0,B3
4,8,B4
5,40,B5
6,18,B6

# Molecular target: T2, Boi2, P39969
# Assay: SPOT array
# Details: median of control spots 1161
row,SPOT intensity,Binder
1,0,B1
2,0,B2
3,0,B3
4,1,B4
5,0,B5
6,1,B6

# Molecular target: T3, Myo5, Q04439
# Assay: SPOT array
# Details: median of control spots 471
row,SPOT intensity,Binder
1,6,B1
2,0,B2
3,0,B3
4,5,B4
5,2,B5
6,4,B6

# Molecular target: T4, Pin3, Q06449
# Assay: SPOT array
# Details: median of control spots 2171
row,SPOT intensity,Binder
1,53,B1
2,86,B2
3,5,B3
4,327,B4
5,9,B5
6,20,B6

# Molecular target: T5, Sla1-2, P32790
# Assay: SPOT array
# Details: median of control spots 712
row,SPOT intensity,Binder
1,0,B1
2,0,B2
3,0,B3
4,2,B4
5,0,B5
6,4,B6

# Molecular target: T6, Bud14, P27637
# Assay: SPOT array
# Details: median of control spots 956
row,SPOT intensity,Binder
1,11,B1
2,0,B2
3,0,B3
4,3,B4
5,13,B5
6,3,B6

# Molecular target: GST
# Assay: SPOT array
# Details: median of control spots 978
row,SPOT intensity,Binder
1,1,B1
2,0,B2
3,0,B3
4,3,B4
5,1,B5
6,2,B6

# Molecular target: T7, Nbp2, Q12163
# Assay: SPOT array
# Details: median of control spots 357
row,SPOT intensity,Binder
1,3,B1
2,2,B2
3,0,B3
4,1,B4
5,2,B5
6,0,B6

# Molecular target: T8, Cyk3, Q07533
# Assay: SPOT array
# Details: median of control spots 1451
row,SPOT intensity,Binder
1,1,B1
2,0,B2
3,0,B3
4,3,B4
5,0,B5
6,1,B6

# Molecular target: T9, Bzz1-2, P38822
# Assay: SPOT array
# Details: median of control spots 4538
row,SPOT intensity,Binder
1,0,B1
2,0,B2
3,0,B3
4,4,B4
5,0,B5
6,0,B6

# Molecular target: Bem1-1, P29366
# Assay: SPOT array
# Details: median of control spots 4282
# Sequence of Bem1-1, P29366 (P29366 55-141): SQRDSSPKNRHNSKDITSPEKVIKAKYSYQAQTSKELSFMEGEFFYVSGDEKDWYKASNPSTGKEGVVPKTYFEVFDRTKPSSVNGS
row,SPOT intensity,Binder
1,0,B1
2,0,B2
3,0,B3
4,0,B4
5,1,B5
6,1,B6

# Molecular target: T10, Pex13, P80667
# Assay: SPOT array
# Details: median of control spots 1341
row,SPOT intensity,Binder
1,6,B1
2,21,B2
3,0,B3
4,16,B4
5,5,B5
6,8,B6

# Molecular target: T11, Sla1-3, P32790
# Assay: SPOT array
# Details: median of control spots 5475
row,SPOT intensity,Binder
1,44,B1
2,15,B2
3,0,B3
4,7,B4
5,14,B5
6,12,B6

# Molecular target: T12, Boi1, P38041
# Assay: SPOT array
# Details: median of control spots 1162
row,SPOT intensity,Binder
1,1,B1
2,0,B2
3,0,B3
4,1,B4
5,1,B5
6,0,B6

# Molecular target: T13, Lsb4, P32793
# Assay: SPOT array
# Details: median of control spots 397
row,SPOT intensity,Binder
1,2,B1
2,57,B2
3,0,B3
4,45,B4
5,6,B5
6,0,B6

# Molecular target: T14, Lsb1, P53281
# Assay: SPOT array
# Details: median of control spots 388
row,SPOT intensity,Binder
1,355,B1
2,379,B2
3,880,B3
4,819,B4
5,467,B5
6,888,B6

# Molecular target: T15, Abp1, P15891
# Assay: SPOT array
# Details: median of control spots 935
row,SPOT intensity,Binder
1,67,B1
2,133,B2
3,10,B3
4,14,B4
5,74,B5
6,64,B6

# Molecular target: T16, Hse1, P38753
# Assay: SPOT array
# Details: median of control spots 1727
row,SPOT intensity,Binder
1,16,B1
2,9,B2
3,0,B3
4,2,B4
5,20,B5
6,1,B6

# Molecular target: Myo3, P36006
# Assay: SPOT array
# Details: median of control spots 468
row,SPOT intensity,Binder
1,6,B1
2,3,B2
3,0,B3
4,11,B4
5,3,B5
6,1,B6

# Molecular target: Sho1, P40073
# Assay: SPOT array
# Details: median of control spots 1148
# Sequence of Sho1, P40073 (P40073 287-367): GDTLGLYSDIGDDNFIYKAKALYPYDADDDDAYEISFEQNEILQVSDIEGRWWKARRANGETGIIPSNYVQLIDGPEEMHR
row,SPOT intensity,Binder
1,19,B1
2,40,B2
3,8,B3
4,9,B4
5,39,B5
6,47,B6

# Molecular target: T17, Lsb3, P43603
# Assay: SPOT array
# Details: median of control spots 406
row,SPOT intensity,Binder
1,5,B1
2,41,B2
3,0,B3
4,24,B4
5,0,B5
6,1,B6

# Molecular target: Bem1-2, P29366
# Assay: SPOT array
# Details: median of control spots 4347
# Sequence of Bem1-2, P29366 (P29366 139-227): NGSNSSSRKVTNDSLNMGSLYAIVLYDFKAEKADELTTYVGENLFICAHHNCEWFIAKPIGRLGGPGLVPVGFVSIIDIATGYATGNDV
row,SPOT intensity,Binder
1,5,B1
2,2,B2
3,0,B3
4,0,B4
5,12,B5
6,0,B6

# Molecular target: T18, Hof1, Q05080
# Assay: SPOT array
# Details: median of control spots 4086
row,SPOT intensity,Binder
1,8,B1
2,0,B2
3,0,B3
4,1,B4
5,13,B5
6,2,B6

# Molecular target: Rvs167, P39743
# Assay: SPOT array
# Details: median of control spots 2707
# Sequence of Rvs167, P39743 (P39743 419-482): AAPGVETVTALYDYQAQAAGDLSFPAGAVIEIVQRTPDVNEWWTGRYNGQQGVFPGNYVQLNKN
row,SPOT intensity,Binder
1,0,B1
2,4,B2
3,0,B3
4,21,B4
5,0,B5
6,2,B6

# Molecular target: T19, Fus1, P11710
# Assay: SPOT array
# Details: median of control spots 1200
row,SPOT intensity,Binder
1,54,B1
2,0,B2
3,0,B3
4,6,B4
5,1,B5
6,2,B6

# Molecular target: T20, Cdc25, P04821
# Assay: SPOT array
# Details: median of control spots 969
row,SPOT intensity,Binder
1,0,B1
2,2,B2
3,0,B3
4,0,B4
5,5,B5
6,0,B6

# Molecular target: T21, Bzz1-1, P38822
# Assay: SPOT array
# Details: median of control spots 4446
row,SPOT intensity,Binder
1,1,B1
2,0,B2
3,1,B3
4,0,B4
5,3,B5
6,1,B6
